{
  "source": "paper PMC11764028",
  "about": "(Bioactive Materials, 2025)",
  "proteins": {"B1": {"name": "dual-functional fusion protein KFS (KALA peptide - human ferritin light chain - SIINFEKL) (other)", "chain": "WEAKLAKALAKALAKHLAKALAKALKAIRQNYSTDVEAAVNSLVNLYLQASYTYLSLGFYFDRDDVALEGVSHFFRELAEEKREGYERLLKMQNQRGGRALFQDIKKPAEDEWGKTPDAMKAAMALEKKLNQALLDLHALGSARTDPHLCDFLETHFLDEEVKLIKKMGDHLTNLHRGGGGSGGGGSGGGGSSIINFEKL"}},
  "target": "the molecule itself",
  "assay": "SEC + native gel or EMSA",
  "data": [
    {"protein": "B1", "values": [
      {"measurement": "stoichiometry N", "result": 40}
    ]}
  ]
}
